According to the supplement of paper PMC10065799, “High-throughput profiling of sequence recognition by tyrosine kinases and SH2 domains using bacterial peptide display” (eLife, 2023):

Target: FGFR3 (UniProt P22607)
Experiment: phosphorylation enrichment, bacterial display (enrichment ratio); higher = better substrate or ligand; peptides without Tyr show the background
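Note: 11-residue human phosphosite peptides and single-mutation variants displayed on the E. coli surface, counted by deep sequencing, each peptide's frequency after selection divided by its frequency in the unselected input library; frequency after pTyr selection over input frequency; kinase dosed for 20-30% of maximal phosphorylation in three min.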

Chain of FGFR3 (P22607 whole entry, looked up): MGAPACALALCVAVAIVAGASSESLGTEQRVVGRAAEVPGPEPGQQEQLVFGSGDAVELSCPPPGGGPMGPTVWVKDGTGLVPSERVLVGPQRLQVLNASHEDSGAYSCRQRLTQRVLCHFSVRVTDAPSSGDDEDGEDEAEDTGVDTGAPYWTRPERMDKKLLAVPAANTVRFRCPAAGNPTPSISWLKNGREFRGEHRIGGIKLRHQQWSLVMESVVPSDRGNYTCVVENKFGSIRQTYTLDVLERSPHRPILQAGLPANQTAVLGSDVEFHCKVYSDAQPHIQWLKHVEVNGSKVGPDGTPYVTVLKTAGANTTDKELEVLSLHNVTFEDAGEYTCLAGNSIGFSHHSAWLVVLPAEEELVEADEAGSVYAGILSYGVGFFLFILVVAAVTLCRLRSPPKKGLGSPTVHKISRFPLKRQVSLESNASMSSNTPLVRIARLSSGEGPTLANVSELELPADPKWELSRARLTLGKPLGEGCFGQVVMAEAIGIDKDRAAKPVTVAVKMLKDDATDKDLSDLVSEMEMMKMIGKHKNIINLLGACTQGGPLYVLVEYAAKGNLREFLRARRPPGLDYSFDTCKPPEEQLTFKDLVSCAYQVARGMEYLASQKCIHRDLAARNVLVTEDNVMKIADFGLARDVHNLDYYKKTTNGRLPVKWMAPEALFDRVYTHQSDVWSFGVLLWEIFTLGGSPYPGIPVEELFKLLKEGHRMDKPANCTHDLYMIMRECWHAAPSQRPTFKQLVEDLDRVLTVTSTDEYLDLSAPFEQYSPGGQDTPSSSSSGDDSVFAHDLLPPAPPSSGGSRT

In order of falling phosphorylation enrichment:
1. PMDGEYFTLQI [TP53_Y327_L323M]  9.07
2. PNQRRYVYYYS [PTEN_Y174_S170N]  1.61
3. GEEIKYMLWLL [OTC_Y55_S60L]  0.975
4. TNFRLYLRSLE [MTM1_Y71_YF]  0.964
5. PFSEPYADFGG [APBA1_Y187_YF]  0.957
6. VQEDIYDEFVV [ALDH2_Y332_E337V]  0.886
7. FSEVRYVKEPF [HIPK4_Y170_YF]  0.884
8. GFCSWYRGWAP [TIMP3_Y195_YF]  0.813
9. RKRQFYLFKGK [RSPO4_Y112_C107R_YF]  0.803
10. LRLSSYSTTIR [CYP7B1_Y365]  0.756
11. KLSFSYGQALQ [ALDOB_Y302_R304Q]  0.72
12. KVALLYKPYFY [POLE_Y100_P99L]  0.693
13. EREFKYDAHNF [OAT_Y50_G51D_YF]  0.693
14. VVKLAYNENDN [CAMKK2_Y183]  0.672
15. CITIHYNYMCN [TP53_Y234_T230I]  0.662
16. TEQDPYNNIDR [MMUT_Y364_V368D]  0.641
17. YSIAQYCCRMG [LRRK2_Y2023_G2019S]  0.64
18. VMAALYGRLYE [BTD_Y536_T532M]  0.617
19. ADFPDYKFRPR [SOX11_Y116_YF]  0.58
20. VVQGIYGYHHY [UFSP2_Y285]  0.575
21. TTEHIYGDNFF [UBA7_Y524]  0.552
22. YLRTGYSVPYG [TGM1_Y370]  0.532
23. ANNPLYKEATP [ITGB3_Y773_S778P]  0.479
24. DIPIRYSITGV [CDH4_Y205]  0.478
25. VDASFYGGRGV [ANTXR2_Y381_YF]  0.463
26. IRKKYYRAILE [CHD7_Y1218_Q1214R]  0.439
27. AVLALHNSTRD [TGFB1_Y81_Y81H]  0.387
28. YKGKNYKPLDL [RPL35_Y78_K77N]  0.362
29. VIDGKYAFKPK [GTF2E2_Y137]  0.329

Test system: Fer (mouse)
Experiment: as above

In order of rising phosphorylation enrichment:
1. YKGKNYKPLDL [RPL35_Y78_K77N]  0.267
2. VIDGKYAFKPK [GTF2E2_Y137]  0.276
3. VDASFYGGRGV [ANTXR2_Y381_YF]  0.336
4. ADFPDYKFRPR [SOX11_Y116_YF]  0.369
5. ANNPLYKEATP [ITGB3_Y773_S778P]  0.372
6. AVLALHNSTRD [TGFB1_Y81_Y81H]  0.38
7. IRKKYYRAILE [CHD7_Y1218_Q1214R]  0.389
8. DIPIRYSITGV [CDH4_Y205]  0.402
9. KVALLYKPYFY [POLE_Y100_P99L]  0.474
10. VVKLAYNENDN [CAMKK2_Y183]  0.484
11. TEQDPYNNIDR [MMUT_Y364_V368D]  0.486
12. YLRTGYSVPYG [TGM1_Y370]  0.489
13. FSEVRYVKEPF [HIPK4_Y170_YF]  0.505
14. LRLSSYSTTIR [CYP7B1_Y365]  0.524
15. KLSFSYGQALQ [ALDOB_Y302_R304Q]  0.529
16. CITIHYNYMCN [TP53_Y234_T230I]  0.569
17. GFCSWYRGWAP [TIMP3_Y195_YF]  0.593
18. TNFRLYLRSLE [MTM1_Y71_YF]  0.612
19. PFSEPYADFGG [APBA1_Y187_YF]  0.719
20. RKRQFYLFKGK [RSPO4_Y112_C107R_YF]  0.787
21. PNQRRYVYYYS [PTEN_Y174_S170N]  0.817
22. EREFKYDAHNF [OAT_Y50_G51D_YF]  0.832
23. YSIAQYCCRMG [LRRK2_Y2023_G2019S]  1.23
24. VMAALYGRLYE [BTD_Y536_T532M]  1.38
25. PMDGEYFTLQI [TP53_Y327_L323M]  1.57
26. GEEIKYMLWLL [OTC_Y55_S60L]  1.88
27. TTEHIYGDNFF [UBA7_Y524]  2.38
28. VQEDIYDEFVV [ALDH2_Y332_E337V]  5.77
29. VVQGIYGYHHY [UFSP2_Y285]  16.7

Target: Fes (UniProt P07332)
Experiment: as above

Chain of Fes (P07332 whole entry, looked up): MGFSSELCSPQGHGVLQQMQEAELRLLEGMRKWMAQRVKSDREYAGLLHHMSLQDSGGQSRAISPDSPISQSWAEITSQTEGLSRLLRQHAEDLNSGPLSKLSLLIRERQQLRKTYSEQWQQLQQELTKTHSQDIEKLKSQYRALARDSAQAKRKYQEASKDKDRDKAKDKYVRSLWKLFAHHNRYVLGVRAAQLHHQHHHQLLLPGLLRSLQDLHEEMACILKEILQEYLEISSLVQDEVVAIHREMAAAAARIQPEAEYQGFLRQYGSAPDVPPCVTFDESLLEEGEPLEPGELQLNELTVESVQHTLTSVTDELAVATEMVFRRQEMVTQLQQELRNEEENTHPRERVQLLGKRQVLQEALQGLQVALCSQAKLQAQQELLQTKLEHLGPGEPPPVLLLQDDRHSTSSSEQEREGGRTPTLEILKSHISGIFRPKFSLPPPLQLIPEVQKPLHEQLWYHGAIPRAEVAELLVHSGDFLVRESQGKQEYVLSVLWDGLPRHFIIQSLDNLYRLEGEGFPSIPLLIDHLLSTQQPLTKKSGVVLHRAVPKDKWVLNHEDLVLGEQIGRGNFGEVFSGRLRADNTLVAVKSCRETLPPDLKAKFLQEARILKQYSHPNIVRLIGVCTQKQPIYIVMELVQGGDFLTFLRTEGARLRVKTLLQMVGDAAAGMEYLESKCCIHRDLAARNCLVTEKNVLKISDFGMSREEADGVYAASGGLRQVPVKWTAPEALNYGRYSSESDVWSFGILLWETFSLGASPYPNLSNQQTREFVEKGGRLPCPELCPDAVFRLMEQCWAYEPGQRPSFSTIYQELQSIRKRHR

In order of rising phosphorylation enrichment:
1. VIDGKYAFKPK [GTF2E2_Y137]  0.457
2. IRKKYYRAILE [CHD7_Y1218_Q1214R]  0.581
3. VDASFYGGRGV [ANTXR2_Y381_YF]  0.632
4. AVLALHNSTRD [TGFB1_Y81_Y81H]  0.647
5. YLRTGYSVPYG [TGM1_Y370]  0.685
6. ADFPDYKFRPR [SOX11_Y116_YF]  0.697
7. YKGKNYKPLDL [RPL35_Y78_K77N]  0.697
8. YSIAQYCCRMG [LRRK2_Y2023_G2019S]  0.708
9. ANNPLYKEATP [ITGB3_Y773_S778P]  0.764
10. DIPIRYSITGV [CDH4_Y205]  0.827
11. FSEVRYVKEPF [HIPK4_Y170_YF]  0.831
12. TTEHIYGDNFF [UBA7_Y524]  0.882
13. VVKLAYNENDN [CAMKK2_Y183]  0.897
14. RKRQFYLFKGK [RSPO4_Y112_C107R_YF]  0.949
15. VMAALYGRLYE [BTD_Y536_T532M]  0.963
16. CITIHYNYMCN [TP53_Y234_T230I]  1.01
17. EREFKYDAHNF [OAT_Y50_G51D_YF]  1.02
18. VVQGIYGYHHY [UFSP2_Y285]  1.04
19. TEQDPYNNIDR [MMUT_Y364_V368D]  1.06
20. KLSFSYGQALQ [ALDOB_Y302_R304Q]  1.1
21. LRLSSYSTTIR [CYP7B1_Y365]  1.1
22. KVALLYKPYFY [POLE_Y100_P99L]  1.11
23. VQEDIYDEFVV [ALDH2_Y332_E337V]  1.25
24. GFCSWYRGWAP [TIMP3_Y195_YF]  1.27
25. PFSEPYADFGG [APBA1_Y187_YF]  1.29
26. TNFRLYLRSLE [MTM1_Y71_YF]  1.49
27. GEEIKYMLWLL [OTC_Y55_S60L]  1.55
28. PMDGEYFTLQI [TP53_Y327_L323M]  1.95
29. PNQRRYVYYYS [PTEN_Y174_S170N]  2.29

Target: Fyn (UniProt P06241)
Experiment: as above

Chain of Fyn (P06241 whole entry, looked up): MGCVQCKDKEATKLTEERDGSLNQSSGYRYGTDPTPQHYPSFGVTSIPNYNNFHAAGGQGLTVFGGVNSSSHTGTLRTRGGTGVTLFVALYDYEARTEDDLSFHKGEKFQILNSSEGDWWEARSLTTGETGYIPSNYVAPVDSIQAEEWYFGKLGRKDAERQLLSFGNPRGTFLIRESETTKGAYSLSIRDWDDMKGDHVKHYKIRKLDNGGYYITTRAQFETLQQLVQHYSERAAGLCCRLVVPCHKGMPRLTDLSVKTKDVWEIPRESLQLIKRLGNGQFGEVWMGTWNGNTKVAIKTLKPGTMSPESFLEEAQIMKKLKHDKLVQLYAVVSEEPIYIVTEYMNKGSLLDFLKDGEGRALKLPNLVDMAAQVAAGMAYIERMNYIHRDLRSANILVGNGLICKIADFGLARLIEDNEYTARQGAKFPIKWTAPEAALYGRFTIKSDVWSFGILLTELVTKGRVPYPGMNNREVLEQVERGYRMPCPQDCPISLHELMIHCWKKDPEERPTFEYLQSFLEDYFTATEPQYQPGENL

In order of rising phosphorylation enrichment:
1. YKGKNYKPLDL [RPL35_Y78_K77N]  0.334
2. VIDGKYAFKPK [GTF2E2_Y137]  0.348
3. EREFKYDAHNF [OAT_Y50_G51D_YF]  0.361
4. ANNPLYKEATP [ITGB3_Y773_S778P]  0.402
5. IRKKYYRAILE [CHD7_Y1218_Q1214R]  0.405
6. YLRTGYSVPYG [TGM1_Y370]  0.42
7. KLSFSYGQALQ [ALDOB_Y302_R304Q]  0.422
8. AVLALHNSTRD [TGFB1_Y81_Y81H]  0.423
9. CITIHYNYMCN [TP53_Y234_T230I]  0.423
10. DIPIRYSITGV [CDH4_Y205]  0.447
11. VDASFYGGRGV [ANTXR2_Y381_YF]  0.447
12. TNFRLYLRSLE [MTM1_Y71_YF]  0.449
13. KVALLYKPYFY [POLE_Y100_P99L]  0.457
14. ADFPDYKFRPR [SOX11_Y116_YF]  0.472
15. GFCSWYRGWAP [TIMP3_Y195_YF]  0.472
16. VVKLAYNENDN [CAMKK2_Y183]  0.478
17. GEEIKYMLWLL [OTC_Y55_S60L]  0.5
18. TEQDPYNNIDR [MMUT_Y364_V368D]  0.505
19. FSEVRYVKEPF [HIPK4_Y170_YF]  0.513
20. LRLSSYSTTIR [CYP7B1_Y365]  0.687
21. YSIAQYCCRMG [LRRK2_Y2023_G2019S]  0.895
22. RKRQFYLFKGK [RSPO4_Y112_C107R_YF]  1.14
23. PFSEPYADFGG [APBA1_Y187_YF]  1.15
24. PNQRRYVYYYS [PTEN_Y174_S170N]  1.86
25. VQEDIYDEFVV [ALDH2_Y332_E337V]  3.96
26. PMDGEYFTLQI [TP53_Y327_L323M]  4.35
27. TTEHIYGDNFF [UBA7_Y524]  5.55
28. VMAALYGRLYE [BTD_Y536_T532M]  5.87
29. VVQGIYGYHHY [UFSP2_Y285]  11.8
